# Laboratory results: patent US20230050972A1 (MOMENTA PHARMACEUTICALS, published 2023)
# Where a chain is given by its changes, count along the chain named.
# T1: in-house generated I domain of α11β1 (human, UniProt Q9UKX5 159-349, limits assumed)
# T1 construct: domain: I domain; also called human α11β1 I domain; α11β1 I Domain
# T1 sequence (looked up): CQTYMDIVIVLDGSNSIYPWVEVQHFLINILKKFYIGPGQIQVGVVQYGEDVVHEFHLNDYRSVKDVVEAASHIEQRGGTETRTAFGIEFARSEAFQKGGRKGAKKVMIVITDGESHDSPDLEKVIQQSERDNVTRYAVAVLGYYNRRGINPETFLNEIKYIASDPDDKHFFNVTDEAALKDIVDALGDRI
# B1: 7-O8 (antibody, V domains shown)
# VH: EVQLQQSGPELVKPGASVKMSCKASGYTFTDYYIHWVKQKPGQGLEYIGEIYPGSGNTYYNGKFRGKATLTADKSSSTAYMQLSSLTSEDSAVYFCGSGYFDYWGQGTTLTVSS
# VL: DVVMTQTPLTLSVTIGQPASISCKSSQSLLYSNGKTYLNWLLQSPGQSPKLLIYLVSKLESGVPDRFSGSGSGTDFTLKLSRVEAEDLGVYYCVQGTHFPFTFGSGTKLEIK
# notes: mouse hybridoma IgG
# B2: A11B1_6F9 (antibody, V domains shown)
# VH: QSLEESGGDLVKPGASLTLTCTASGSSFSSTYWNCWVRQAPGKGLEWIACINAGSGTTYYASWAKGRFTVSKTSSTTVTLQMTSLTAADTATYFCTRDSDGRFSSGYYFNLWGPGTLVTVSS
# VL: AQVLTQTASPVSAAVGGTVTINCQSSQSVYDNNWLAWYQQKPGQPPKLLIDDASKLTSGVSSRFKGSGSGTQFTLTISGVQCDDAATYYCQGAYYSSGWYWAFGGGTEVVVKG
# notes: recombinant rabbit IgG, full chains
# B3: 9-B11 (antibody, V domains shown)
# VH: QVQLQQPGAELVRPGTSVKLSCKASGYTFTSYWMHWVQQRPGQGLEWIGVIDPSDSYTNYNQKFKGKATLTVDTSSSSAYMQLSSLTSEDSAVYYCARDDVAMDYWGQGTSVTVSS
# VL: DIVVTQSPASLAVSLGQRATISCRASESVDSYGNSFIHWYQQKPGQPPKLLIYRASNLKSGIPARFSGSGSRTDFTLTINPVEADDVATYYCQQSNEDPYTFGGGTKLEIK
# notes: mouse hybridoma IgG
# B4: 10-F23 (antibody, V domains shown)
# VH: QVTLKESGPGILQPSQTLSLTCSFSGFSLSTFAMGVGWIRQPSGKGLEWLAHIWWDDDKYYNPALKSRLTISKDTSKNHVFLKIANVDTADTATYYCARMPLTFYFDYWGQGTTLTVSS
# VL: DVLLTQTPLSLPVSLGDQASISCRSSQSIVHSNGHTYLEWYLQKPGQSPKLLIYKVSNRFSGVPDRFSGSGSGTDFTLKISRVEAEDLGVYYCFQGSHVPFTFGGGTKLEIK
# notes: mouse hybridoma IgG
# B5: 6-A12 (antibody, V domains shown)
# VH: B4 VH with S30R, H79Q
# VL: B4 VL with L4M, H35N, N58T
# notes: mouse hybridoma IgG
# B6: 10-K10 (antibody, V domains shown)
# VH: EVQLQQSGPELVKPGASVKMSCKASGYTITDYYMMWLKQSHGKSLEWIGDINPYTGGTSYNQKFKGKATLTVDKSSSTAYMQLNSLTSEDSAVYYCARGAYWGQGTTLTVSS
# VL: not shown
# notes: mouse hybridoma IgG
# B7: 18E10F10 (antibody, V domains shown)
# VH: EVQLVESGGGLVQPGRSLKLSCAASRFTFSDYNMAWVRQAPKKGLEWVATIYHDDSGSYYRDSVKGRFTISRNNAKSTLYLQMDSLRSEDMATYYCARHNNGFDYWGQGVMVTVAS
# VL: DVVMTQTPVSLPVRLGGQASISCRSSQSLVHSNGNTYLHWYLQKPGQSPQLLINRVSNRFSGVPDRFSGSGSGTDFTLKINRVEPEDLGDYYCLQSTHFPLTFGSGTKLETK
# notes: rat hybridoma mAb
# B8: 6-B21 (antibody, V domains shown)
# VH: EVQLQQSGPELVKPGASVKISCKASGYTFTDYYMNWVKQSHGKSLEWIGDINPHNGGTSFIQKFKGKATLTVDKSSSTAYMELRSLTSEDSAVYYCAPLGRKEGFAYWGQGTLVTVSA
# VL: DTVLTQSPASLVVSLGQRATISCRASKSVSTSGYSYMHWYQQKPGQPPKLLIYLASNLESGVPARFSGSGSGTAFTLNIHPVEEEDAATYYCQHSRELPYTFGGGTKLEIK
# notes: mouse hybridoma IgG
# B9: 6-M8 (antibody, V domains shown)
# VH: QVQLQQPGAELVMPGASVKLSCKASGYTFTNYWMHWVKQRPGQGLEWIGEIDPSDSYTNYNQKFKGKATLTVDKSSSTAYMQLSSLTSEDSAVYYCTRQGSTYAWGQGTSVTVSS
# VL: DIVMTQAAFSNPVTLGTSASISCRSSKSLLHSNGITYLYWYLQKPGQSPQLLIYQMSNLASGVPDRFSSSGSGTDFTLRISRVEAEDVGVYYCAQNLELPPTFGGGTKLEIK
# notes: mouse hybridoma IgG
# B10: 6-P20 (antibody, V domains shown)
# VH: EVQLQQSGPELVKPGASVKISCKASGYTFTDYYMNWVKQSHGRSLELIGDINPNNGGSNFNQKFRGKATLTVDKSSSTAYMELRSLTSEDSAIYYCARMGYWGQGTLVTVSA
# VL: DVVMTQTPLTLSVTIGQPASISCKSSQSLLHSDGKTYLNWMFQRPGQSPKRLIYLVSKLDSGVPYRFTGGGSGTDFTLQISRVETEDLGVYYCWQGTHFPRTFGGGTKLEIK
# notes: mouse hybridoma IgG
# B11: 3-G5 (antibody, V domains shown)
# VH: QVQLQQSGAELARPGASVKLSCKASGYTFTSYGISWVKQRTGQGLEWIGEIFPRSSNTYYNEKFKGKATLTADKSSSTVYMEFRSLTSEDSAVYFCAREGGLAWFAYWGQGTLVTVSA
# VL: DVVMTQTPLTLSVTIGQPASISCKSSQSLLYTNGNTYLNWLLQRPGQSPKRLIYLVSKLDSGIPDRFSGSGSGTDFTLRISRVEAEDLGVYYCLQSTHFPFTFGSGTKLEIK
# notes: mouse hybridoma IgG
# B12: 2-A3 (antibody, V domains shown)
# VH: B6 VH with I29F, L37V, T55N, T58S, Q62P, K67R, A100T, T107L, L108V, S112A
# VL: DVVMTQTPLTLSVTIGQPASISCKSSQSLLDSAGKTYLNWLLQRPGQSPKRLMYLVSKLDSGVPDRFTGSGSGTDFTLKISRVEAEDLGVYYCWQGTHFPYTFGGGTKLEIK
# notes: mouse hybridoma IgG
# B13: 6-A15 (antibody, V domains shown)
# VH: B6 VH with M81L, N84H
# VL: not shown
# notes: mouse hybridoma IgG
# B14: 6-O12 (antibody, V domains shown)
# VH: EVKLEESGGGLVQPGGSMKLSCAASGFTFSDAWMDWVRQSPEAGLEWVAEIRNKAHNPATYYAESVKGRFTISRDDSKSSVYLQMNSLRAEDTGIYYCTLVAPDAMDYWGQGTSVTVSS
# VL: DIVMSLSPSSLAVSVGEKVTMSCKSSQSLLYSRNQKNYLAWYQQKPGQSPKLLIYWASTRASGVPDRFTGSGSGTDFTLTISSVKAEDLAVYYCQQYYSYPYTFGGGTKLEIK
# notes: mouse hybridoma IgG
# B15: 10-L15 (antibody, V domains shown)
# VH: QVQLQQSGPELVRPGASVKMSCKASGYTFTSYWMHWVKQRPGQGLEWIGMIDPSNSETWLNQKFKDKATLNVDKSSNTAYMQLSSLTSEDSAVYYCARYDGYYDYWGQGTTLTVSS
# VL: NIVLTQSPASLAVSLGQRATISCRASESVDSYGNSFMHWYQQKPGQPPKLLIYLASNVESGVPARFSGSGSRTDFTLTIDPVEADDAATYYCQQNNEDPWTFGGGTKLEIK
# notes: mouse hybridoma IgG
# B16: 8H8E9 (antibody, V domains shown)
# VH: QVQLKESGPGLVQPSQTLSLTCTVSGFSLTSNSVSWVRQAPGKGLEWMGAIWSGGSTDYNSALKSRLSISRDTSKSQVFLKMNSLQTEDTAIYFCTRSHWEPFDYWGQGVMVTVSS
# VL: DIVMTQSPFSLAVSEGEMVTINCKSSQGLLSSGNQKNYLAWYQQRPGQSPKLLIYYASTRQSGVPDRFIGGGSGTDFTLTISDVQAEDLADYYCLQHYSYPPTFGSGTKLEIK
# notes: rat hybridoma mAb
# B17: 6E5C11 (antibody, V domains shown)
# VH: B16 VH with K5R, S35T, A40P, G54D, A62T, N83S
# VL: B16 VL with F9L, M18T, I21M, G28S, L30F, R45K, G71S, A86T, S99N
# notes: rat hybridoma mAb
# Target: T2, α11β1 on human myofibroblasts (MF) (human, UniProt Q9UKX5 23-1188; P05556 21-798)
# T2 construct: whole, on cells
# Test: FACS on human myofibroblasts
# Description: Human Pulmonary Fibroblasts (ScienCell) were cultured in complete Fibroblast Growth Medium (ScienCell) until 80% confluent in T-150 flasks. Cells were washed and harvested using Accutase. Cells were seeded into T-150 flasks at 7,500 cells/cm² in complete FGF and cultured for 72 hours. Cells were then washed and starved in serum reduced medium for 24 hours. After starvation, cells were treated with TGFβ-1 (R&D Systems) for 72 hours. Cells were harvested using Accutase and seeded in 96-well conical bottom plates. Cells were blocked with Heat Inactived Fetal Bovine Serum (Gibco) for 30 minutes at 4° C. Cells were then incubated with anti-α11 antibodies at the doses described in each figure for 30 minutes at 4° C. A human anti-α11 antibody (Creative BioLabs) was included as a positive control as well as the appropriate IgG isotype negative controls. Cells were washed twice and incubated with PE conjugated secondary antibodies specific to the IgG class of the anti-α11 antibodies being tested for 30 minutes at 4° C. Cells were washed twice and fixed in 1% PFA for 30 minutes. Cells were acquired on a FACS Verse […]. Data were analyzed by gating on single cells and determining the geometric Mean Fluorescence Intensity (gMFI) in the PE channel for each sample.
# T2 sequence (Q9UKX5 23-1188, chain 1 of 2): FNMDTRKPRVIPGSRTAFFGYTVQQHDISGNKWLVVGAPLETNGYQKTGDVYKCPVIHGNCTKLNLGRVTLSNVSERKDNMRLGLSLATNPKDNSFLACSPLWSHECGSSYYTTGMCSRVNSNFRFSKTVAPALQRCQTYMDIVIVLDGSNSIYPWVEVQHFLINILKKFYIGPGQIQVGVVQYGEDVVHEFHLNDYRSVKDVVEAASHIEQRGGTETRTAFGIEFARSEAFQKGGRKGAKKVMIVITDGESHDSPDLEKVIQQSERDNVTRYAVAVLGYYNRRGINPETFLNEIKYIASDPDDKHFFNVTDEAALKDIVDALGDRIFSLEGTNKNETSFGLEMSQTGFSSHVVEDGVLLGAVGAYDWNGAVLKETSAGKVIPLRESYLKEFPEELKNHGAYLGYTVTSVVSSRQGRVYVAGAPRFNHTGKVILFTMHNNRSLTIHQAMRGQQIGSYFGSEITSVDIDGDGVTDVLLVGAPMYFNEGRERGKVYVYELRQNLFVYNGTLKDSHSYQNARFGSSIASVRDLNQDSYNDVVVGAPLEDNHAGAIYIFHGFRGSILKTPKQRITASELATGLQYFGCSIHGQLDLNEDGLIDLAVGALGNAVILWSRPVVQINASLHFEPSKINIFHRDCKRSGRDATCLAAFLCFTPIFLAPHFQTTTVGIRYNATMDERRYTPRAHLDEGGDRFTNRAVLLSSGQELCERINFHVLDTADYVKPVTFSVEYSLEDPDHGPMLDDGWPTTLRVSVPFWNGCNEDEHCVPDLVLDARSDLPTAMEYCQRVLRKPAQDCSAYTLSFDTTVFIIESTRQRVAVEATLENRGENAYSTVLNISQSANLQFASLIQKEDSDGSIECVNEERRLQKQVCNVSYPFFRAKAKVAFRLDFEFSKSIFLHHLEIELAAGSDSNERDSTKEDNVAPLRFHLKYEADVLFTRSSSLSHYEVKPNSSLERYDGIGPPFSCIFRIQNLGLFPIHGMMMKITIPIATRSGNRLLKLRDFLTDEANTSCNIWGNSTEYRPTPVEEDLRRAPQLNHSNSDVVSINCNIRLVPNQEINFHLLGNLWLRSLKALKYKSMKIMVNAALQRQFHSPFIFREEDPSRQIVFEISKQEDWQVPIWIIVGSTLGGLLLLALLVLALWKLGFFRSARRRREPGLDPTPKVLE
# T2 sequence (P05556 21-798, chain 2 of 2): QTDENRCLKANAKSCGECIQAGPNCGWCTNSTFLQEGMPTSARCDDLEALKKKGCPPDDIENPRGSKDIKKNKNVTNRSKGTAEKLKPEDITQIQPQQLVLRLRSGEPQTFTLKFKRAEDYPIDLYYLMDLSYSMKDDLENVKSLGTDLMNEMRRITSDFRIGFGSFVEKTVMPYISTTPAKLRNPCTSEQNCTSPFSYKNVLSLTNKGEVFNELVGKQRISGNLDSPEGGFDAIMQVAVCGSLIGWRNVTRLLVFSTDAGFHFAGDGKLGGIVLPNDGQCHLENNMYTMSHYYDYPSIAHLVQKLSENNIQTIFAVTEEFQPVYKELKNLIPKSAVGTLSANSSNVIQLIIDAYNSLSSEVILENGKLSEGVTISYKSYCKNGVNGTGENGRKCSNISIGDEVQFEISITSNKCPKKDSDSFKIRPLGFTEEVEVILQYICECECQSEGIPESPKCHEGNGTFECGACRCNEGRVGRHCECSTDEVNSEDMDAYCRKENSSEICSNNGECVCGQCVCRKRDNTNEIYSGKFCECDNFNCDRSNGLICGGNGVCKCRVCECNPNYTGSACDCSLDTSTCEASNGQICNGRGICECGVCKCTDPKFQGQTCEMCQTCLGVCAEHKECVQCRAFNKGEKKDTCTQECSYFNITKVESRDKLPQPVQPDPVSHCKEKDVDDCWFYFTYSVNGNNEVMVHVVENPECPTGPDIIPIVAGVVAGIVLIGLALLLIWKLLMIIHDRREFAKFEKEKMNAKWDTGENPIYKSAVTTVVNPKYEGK
row,binding result,Binder
1,binds,B1
2,binds,B2
3,binds,B3
4,binds,B4
5,binds,B5
6,binds,B6

# Target: T1, in-house generated I domain of α11β1
# Test: binding to isolated I domain
row,binding result,Binder
1,no binding,B7
2,no binding,B8
3,no binding,B9
4,no binding,B10
5,no binding,B2
6,no binding,B11
7,no binding,B6
8,no binding,B12
9,no binding,B13
10,no binding,B14

# Target: T3, recombinant human α11β1 (human, UniProt Q9UKX5 23-1141; P05556 21-728)
# T3 construct: Coated in ELISA; ELISA and SPR material treated as one molecule; also called HIS-tagged human α11β1; integrin alpha 11 beta 1
# Test: ELISA on recombinant human α11β1
# Description: (§1) 0.25 μg/mL of target antigen (recombinant human or mouse α11β1) was plated in a 96-well plate over night at 4° C. Plates were washed (PBS with 0.1% Tween-20), blocked (PBS with 2% BSA and 0.05% Tween-20) for 1 hour at room temperature and incubated with a range of antibody concentrations for 1 hour at room temperature. Subsequently, plates were washed and incubated with biotinylated anti-rabbit/mouse/human IgG in a 1:1000 dilution buffer and incubated for 1 hour at room temperature. After washing the plates, Streptavidin HRP was added at 1:200 in dilution buffer and incubated for 1 hour at room temperature. Ultra TMB ELISA substrate solution was added and the plates incubated for 5 minutes on a plate shaker. The reaction was stopped by adding stop solution to each well and plates were read at 450 nm.
# T3 sequence (Q9UKX5 23-1141 limits assumed, chain 1 of 2): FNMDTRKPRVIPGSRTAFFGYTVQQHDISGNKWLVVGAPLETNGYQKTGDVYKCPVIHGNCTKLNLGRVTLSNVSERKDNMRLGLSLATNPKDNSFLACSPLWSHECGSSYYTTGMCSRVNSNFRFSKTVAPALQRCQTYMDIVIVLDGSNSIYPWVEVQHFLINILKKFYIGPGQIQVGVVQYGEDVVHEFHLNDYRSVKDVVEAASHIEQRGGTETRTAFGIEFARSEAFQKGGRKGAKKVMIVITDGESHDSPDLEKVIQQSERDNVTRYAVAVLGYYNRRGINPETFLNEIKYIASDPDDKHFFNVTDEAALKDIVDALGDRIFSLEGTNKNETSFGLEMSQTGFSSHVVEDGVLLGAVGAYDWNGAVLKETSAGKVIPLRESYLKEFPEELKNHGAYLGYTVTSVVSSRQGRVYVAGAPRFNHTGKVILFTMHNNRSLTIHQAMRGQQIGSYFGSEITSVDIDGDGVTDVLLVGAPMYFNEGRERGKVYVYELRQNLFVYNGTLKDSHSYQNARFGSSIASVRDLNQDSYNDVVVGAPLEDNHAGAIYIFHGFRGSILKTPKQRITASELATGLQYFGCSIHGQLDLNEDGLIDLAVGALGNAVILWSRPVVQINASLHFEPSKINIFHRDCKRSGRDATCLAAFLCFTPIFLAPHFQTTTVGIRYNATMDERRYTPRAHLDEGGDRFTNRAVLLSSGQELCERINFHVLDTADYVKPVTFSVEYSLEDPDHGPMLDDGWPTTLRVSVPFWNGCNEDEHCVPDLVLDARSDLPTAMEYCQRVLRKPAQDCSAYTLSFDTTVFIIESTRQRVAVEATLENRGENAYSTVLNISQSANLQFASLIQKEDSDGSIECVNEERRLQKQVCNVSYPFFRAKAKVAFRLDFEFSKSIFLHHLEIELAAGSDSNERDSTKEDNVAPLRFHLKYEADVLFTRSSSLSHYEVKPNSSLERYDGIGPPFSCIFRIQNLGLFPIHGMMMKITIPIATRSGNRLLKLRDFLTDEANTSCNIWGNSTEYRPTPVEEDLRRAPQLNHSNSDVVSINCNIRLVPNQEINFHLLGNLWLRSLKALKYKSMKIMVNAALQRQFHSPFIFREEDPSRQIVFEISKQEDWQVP
# T3 sequence (P05556 21-728 limits assumed, chain 2 of 2): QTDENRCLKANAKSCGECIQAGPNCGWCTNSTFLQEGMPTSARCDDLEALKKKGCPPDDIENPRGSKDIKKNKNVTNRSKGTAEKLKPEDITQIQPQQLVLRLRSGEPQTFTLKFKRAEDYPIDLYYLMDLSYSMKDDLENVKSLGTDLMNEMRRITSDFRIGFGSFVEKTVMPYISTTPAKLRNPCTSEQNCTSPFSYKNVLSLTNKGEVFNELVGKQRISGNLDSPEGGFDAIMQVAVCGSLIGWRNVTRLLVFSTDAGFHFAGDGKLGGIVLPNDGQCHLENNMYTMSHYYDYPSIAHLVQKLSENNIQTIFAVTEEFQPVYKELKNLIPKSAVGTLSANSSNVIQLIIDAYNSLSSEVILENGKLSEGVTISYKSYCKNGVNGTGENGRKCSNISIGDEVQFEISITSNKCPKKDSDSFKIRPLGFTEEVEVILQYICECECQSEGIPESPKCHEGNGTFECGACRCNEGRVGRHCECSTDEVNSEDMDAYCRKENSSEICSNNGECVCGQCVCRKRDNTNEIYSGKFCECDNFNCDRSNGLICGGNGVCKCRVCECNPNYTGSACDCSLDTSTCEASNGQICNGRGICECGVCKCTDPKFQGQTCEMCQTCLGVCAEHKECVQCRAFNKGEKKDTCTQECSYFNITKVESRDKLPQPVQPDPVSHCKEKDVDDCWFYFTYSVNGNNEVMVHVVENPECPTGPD
row,binding result,Binder
1,binds,B15
2,binds,B7
3,binds,B1
4,binds,B8
5,binds,B9
6,binds,B16
7,binds,B17
8,binds,B10
9,binds,B2
10,binds,B3
11,binds,B4
12,binds,B5
13,binds,B11
14,binds,B6
15,binds,B12
16,binds,B13
17,binds,B14

# Target: T4, recombinant mouse α11β1 (mouse, UniProt P61622 23-1141; P09055 21-728, limits assumed)
# T4 construct: also called murine α11β1
# Test: ELISA on recombinant mouse α11β1
# Description: as §1
row,binding result,Binder
1,binds,B15
2,no binding,B7
3,binds,B1
4,binds,B8
5,no binding,B9
6,no binding,B16
7,no binding,B17
8,no binding,B10
9,no binding,B2
10,no binding,B3
11,binds,B4
12,binds,B5
13,binds,B11
14,binds,B6
15,binds,B12
16,binds,B13
17,no binding,B14
